The record followed here is publication PMC9082315 (Frontiers in Immunology, 2022).

B1: Nb 1.29, monomeric nanobody (VHH)
VHH: QVQLVESGGGSVQAGGSLRLSCAASGYTINTDAVAWFRQAPGKGDERVAVIYTGSGNTNYADSVKGRFTISQDNAKNTVYLQMNSLKPEDTALYYCASGYYGASGYDFNNWGQGTQVTVSS
B2: Nb 1.26, monomeric nanobody (VHH)
VHH: QVQLVESGGGLVQAGGSLRLSCAATGYTWSSVCMGWFRQAPGKEREGVAGIPSGRNRPYYADSVKGRFTISQDNAKNAVFLLMNSLKPEDTAIYYCAPCSAPHDPEYNYWGQGTQVTVSS
B3: 1.29 Nb (VHH)
VHH: QVQLVESGGGSVQAGGSLRLSCAASGYTINTDAVAWFRQAPGKGDERVAVIYTGSGNTNYADSVKGRFTISQDNAKNTVYLQMNSLKPEDTALYYCASGYYGASGYDFNNWGQGTQVTVSS
B4: 1.10 Nb (VHH)
VHH: QVQLVESGGGSVQAGGSLRLSCAASGYTYSTCRKGWYRQAPGKERELVASITADGATYYLDSVKGRLTISQDNAKNTVYLQMNSLKPEDTAVYYCAASVKDFTCTFNSWGQGTQVTVSS
B5: 2.20 Nb (VHH)
VHH: QVQLVESGGGSVQAGGSLRLSCAASGYTYNNYYMGWFRQAPGKEREGVAAINSDGLDTYVADSVKGRFTISRDNAKDTVHLQMNSLKPEDTAIYSCATGRTVYYSGYDFRLSVDDYWGQGTQVTVSS
B6: 1.26 Nb (VHH)
VHH: QVQLVESGGGLVQAGGSLRLSCAATGYTWSSVCMGWFRQAPGKEREGVAGIPSGRNRPYYADSVKGRFTISQDNAKNAVFLLMNSLKPEDTAIYYCAPCSAPHDPEYNYWGQGTQVTVSS
B7: Nb 2.11 displayed on E. coli as intimin-Nb-myc tag fusion (VHH)
VHH: QVQLVESGGGSVQAGGSLRLSCAASGDASNRKCVSWFRRAPGKEREGVALIFPVGSSTAYADSVKGRFTISQDSAKDTVYLQMNNLKPEDSGTYYCAAVSWGGRCNLETQTVTFWGQGTQVTVSS
B8: Nb 1.29 displayed on E. coli as intimin-Nb-myc tag fusion (VHH)
VHH: QVQLVESGGGSVQAGGSLRLSCAASGYTINTDAVAWFRQAPGKGDERVAVIYTGSGNTNYADSVKGRFTISQDNAKNTVYLQMNSLKPEDTALYYCASGYYGASGYDFNNWGQGTQVTVSS
B9: Nb 2.15 displayed on E. coli as intimin-Nb-myc tag fusion (VHH)
VHH: QVQLVESGGGSVQAGGSLKLSCAASGYASWARKCIGWFRQAPGQEREGVAAIFDFDGSTYYSDSVKGRFTISGDNAKNTVSLQMNSLLPKDTAVYYCTVAFGTCDNWYRGRGDYWGQGTQVTVSS
B10: Nb 1.10 displayed on E. coli as intimin-Nb-myc tag fusion (VHH)
VHH: QVQLVESGGGSVQAGGSLRLSCAASGYTYSTCRKGWYRQAPGKERELVASITADGATYYLDSVKGRLTISQDNAKNTVYLQMNSLKPEDTAVYYCAASVKDFTCTFNSWGQGTQVTVSS
B11: Nb 2.20 displayed on E. coli as intimin-Nb-myc tag fusion (VHH)
VHH: QVQLVESGGGSVQAGGSLRLSCAASGYTYNNYYMGWFRQAPGKEREGVAAINSDGLDTYVADSVKGRFTISRDNAKDTVHLQMNSLKPEDTAIYSCATGRTVYYSGYDFRLSVDDYWGQGTQVTVSS
B12: Nb 2.1 displayed on E. coli as intimin-Nb-myc tag fusion (VHH)
VHH: QVQLVESGGGSVQAGGSLRLSCAAFGATISSAHMGWFRQAPGKEREGVAFRYTDGSSTYYTTSVRGRFTISQDNAKNTVYLQMNSLKPEDTAMYYCASNPSWGRLVGGQYNNWGQGTQITVSS
B13: Nb 1.16 displayed on E. coli as intimin-Nb-myc tag fusion (VHH)
VHH: QVQLVESGGGSVQAGGSLRLSCAASGNTSKRKCVGWFRRAPGKEREGVTLIYTVGGSTVYADSVKGRFTISQDNAKDTVYLQMNSLKPEDSAMYYCAAESWGRQCNLETHRFTFWGQGTQVTVSS
B14: Nb 1.26 displayed on E. coli as intimin-Nb-myc tag fusion (VHH)
VHH: QVQLVESGGGLVQAGGSLRLSCAATGYTWSSVCMGWFRQAPGKEREGVAGIPSGRNRPYYADSVKGRFTISQDNAKNAVFLLMNSLKPEDTAIYYCAPCSAPHDPEYNYWGQGTQVTVSS
B15: Nb 1.28 displayed on E. coli as intimin-Nb-myc tag fusion (VHH)
VHH: QVQLVESGGGSVQAGGSLRLSCAASGLTNIRCHMAWYRQAPGKGRELVSRITTNGVTDYADSVKERFTISRHNAENTVYLQMNSLKPEDTAVYYCAACGFSTTTYWGQGTQVTVSS

Usually Kd stands for the equilibrium constant for the complex coming apart. Read a high Kd as lower affinity. By koff is commonly meant a measure of how fast the partners let go of each other. Higher therefore signals a short-lived complex. By kon is commonly meant the rate constant with which the complex forms.

The target of one test is monomeric SARS-CoV-2 RBD (S residues 332-534) with Flag peptide and 8xHis-tag (SARS-CoV-2, WA1 (Wuhan-like), UniProt P0DTC2, biotin (only in the flow cytometry on bacteria)). The test can be described thus: SPR. The note with it: both partners purified.
As for B1, the affinity, expressed as Kd, was 13 nM. Same read-out and setting: for B2 the value was ~0.3 nM.

In another test the target is monomeric SARS-CoV-2 RBD with Flag peptide and 8xHis-tag (RBD-FH) (SARS-CoV-2, WA1 (Wuhan-like), UniProt P0DTC2). In words: SPR. The settings on record: both partners purified.
Molecule B3 had a Kd of 12.9 nM, a koff of 0.00614 s⁻¹ and a kon of 476000 M⁻¹ s⁻¹. B4 showed a Kd of 3.96 nM, a koff of 0.00137 s⁻¹ and a kon of 345000 M⁻¹ s⁻¹. B5: the Kd is 0.77 nM, the koff came out at 0.00101 s⁻¹ and the kon came to 1.3e+06 M⁻¹ s⁻¹. B6 showed a Kd of 0.26 nM, a koff of 0.000624 s⁻¹ and a kon of 2.44e+06 M⁻¹ s⁻¹.

Another test deals with T1, human fibrinogen (control antigen) (Homo sapiens, UniProt P02671;P02675;P02679-2, biotin | biotin | biotin).
T1 construct: also called human fribrinogen
T1 sequence (P02671 36-866, chain 1 of 3): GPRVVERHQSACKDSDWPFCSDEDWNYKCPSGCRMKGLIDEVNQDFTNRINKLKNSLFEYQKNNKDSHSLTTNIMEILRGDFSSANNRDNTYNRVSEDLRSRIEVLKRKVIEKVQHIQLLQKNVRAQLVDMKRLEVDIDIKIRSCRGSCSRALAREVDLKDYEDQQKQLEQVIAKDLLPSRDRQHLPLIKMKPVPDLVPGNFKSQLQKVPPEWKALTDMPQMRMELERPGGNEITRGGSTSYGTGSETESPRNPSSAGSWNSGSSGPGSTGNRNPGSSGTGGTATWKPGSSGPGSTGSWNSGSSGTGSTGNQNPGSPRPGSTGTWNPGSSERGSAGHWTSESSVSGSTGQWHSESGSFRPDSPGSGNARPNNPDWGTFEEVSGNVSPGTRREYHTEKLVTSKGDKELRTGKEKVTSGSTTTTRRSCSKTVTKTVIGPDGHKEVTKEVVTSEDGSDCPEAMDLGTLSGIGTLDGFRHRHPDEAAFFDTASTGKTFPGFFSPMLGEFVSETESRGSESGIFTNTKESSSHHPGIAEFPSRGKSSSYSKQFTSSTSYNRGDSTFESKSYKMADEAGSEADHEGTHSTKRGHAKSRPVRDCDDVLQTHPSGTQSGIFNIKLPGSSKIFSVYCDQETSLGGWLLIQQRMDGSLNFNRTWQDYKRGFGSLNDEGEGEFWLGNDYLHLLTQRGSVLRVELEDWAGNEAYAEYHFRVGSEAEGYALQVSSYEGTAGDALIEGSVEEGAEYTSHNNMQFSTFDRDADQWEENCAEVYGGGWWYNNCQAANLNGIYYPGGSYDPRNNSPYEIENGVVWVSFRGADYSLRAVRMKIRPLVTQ
T1 sequence (P02675 45-491, chain 2 of 3): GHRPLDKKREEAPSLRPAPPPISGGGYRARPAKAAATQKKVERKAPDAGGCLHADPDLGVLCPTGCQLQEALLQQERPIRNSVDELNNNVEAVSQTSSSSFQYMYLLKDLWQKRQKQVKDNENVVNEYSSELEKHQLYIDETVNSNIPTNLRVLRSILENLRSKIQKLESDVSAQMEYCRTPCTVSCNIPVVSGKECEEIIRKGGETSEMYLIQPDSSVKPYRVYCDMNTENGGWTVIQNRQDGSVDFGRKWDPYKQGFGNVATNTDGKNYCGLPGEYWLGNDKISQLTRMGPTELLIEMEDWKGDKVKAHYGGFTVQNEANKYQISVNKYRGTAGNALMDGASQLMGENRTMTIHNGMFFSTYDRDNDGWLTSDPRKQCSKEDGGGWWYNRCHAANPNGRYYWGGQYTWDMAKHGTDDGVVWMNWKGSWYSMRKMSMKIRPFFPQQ
T1 sequence (P02679 27-453, chain 3 of 3): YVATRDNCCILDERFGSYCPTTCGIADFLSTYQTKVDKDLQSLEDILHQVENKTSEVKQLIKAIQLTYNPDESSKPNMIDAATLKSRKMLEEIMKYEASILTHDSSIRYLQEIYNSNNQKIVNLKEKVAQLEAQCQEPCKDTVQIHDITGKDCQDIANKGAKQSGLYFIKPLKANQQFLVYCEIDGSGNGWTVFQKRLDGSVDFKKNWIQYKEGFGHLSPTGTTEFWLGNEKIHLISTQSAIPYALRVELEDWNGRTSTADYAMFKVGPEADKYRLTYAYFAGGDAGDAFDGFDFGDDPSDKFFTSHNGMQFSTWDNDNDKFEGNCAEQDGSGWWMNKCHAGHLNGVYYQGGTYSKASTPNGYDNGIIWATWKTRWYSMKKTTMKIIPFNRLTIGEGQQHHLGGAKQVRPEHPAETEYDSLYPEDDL
In words: flow cytometry on cells. The note with it: one partner purified. (A flow cytometer gives signals particle by particle.)
For the molecule B7, the binding result was “no binding (tested: 100 nM)”.

With B8, the binding result is reported as “no binding (tested: 100 nM)”. As to B9, the binding result was “no binding (tested: 100 nM)”. Regarding B10, the binding result is listed as “no binding (tested: 100 nM)”.

In the case of B11, the binding result is on record as “no binding (tested: 100 nM)”. B12: the binding result is given as “no binding (tested: 100 nM)”. Turning to B13, the binding result is listed as “no binding (tested: 100 nM)”. As to B14, the binding result is recorded as “no binding (tested: 100 nM)”. With B15, the binding result is listed as “no binding (tested: 100 nM)”.
